Drawing on article PMC10663500, this text covers Kd, koff and kon for one substance.

The assay has as its target toripalimab Fab, wild type. As to the kind of experiment: SPR; Carterra LSA; Fab from the ammonium sulfate precipitate of the culture supernatant immobilised on a NiHC200M chip; hPD-1 (1-1024 nM) or mPD-1-Fc (4-1024 nM) as analyte, fourfold dilution series, no regeneration; HBS-EP pH 7.4, 25 °C; medians over the spots of a construct, KD = koff/kon.

toripalimab Fab, wild type, sequence (heavy, as listed by the source, chain 1 of 2): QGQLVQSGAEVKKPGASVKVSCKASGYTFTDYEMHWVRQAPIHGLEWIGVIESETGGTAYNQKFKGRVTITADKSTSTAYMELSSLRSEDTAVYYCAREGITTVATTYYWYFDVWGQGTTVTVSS
toripalimab Fab, wild type, sequence (light, as listed by the source, chain 2 of 2): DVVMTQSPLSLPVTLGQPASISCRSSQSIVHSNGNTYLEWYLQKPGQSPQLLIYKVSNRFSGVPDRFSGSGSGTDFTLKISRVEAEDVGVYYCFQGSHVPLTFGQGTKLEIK
mouse programmed cell death protein 1 Fc fusion protein (mPD-1-Fc), mPD-1 C60S (aa 25-167), sequence (Q02242 25-167, stated change not applied): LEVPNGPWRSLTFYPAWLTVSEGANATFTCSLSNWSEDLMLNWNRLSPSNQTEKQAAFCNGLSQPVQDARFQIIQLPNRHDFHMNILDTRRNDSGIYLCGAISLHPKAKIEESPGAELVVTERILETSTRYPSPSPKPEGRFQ

“mouse programmed cell death protein 1 Fc fusion protein (mPD-1-Fc), mPD-1 C60S (aa 25-167) (from UniProt Q02242 25-167)” had a Kd of 0.136 µM, a koff of 0.00548 s⁻¹ and a kon of 40300 M⁻¹ s⁻¹.
